± gives the uncertainty stated by the source.

To fix the notation:
B1: Zinc finger homeobox protein 4, residues 2086 to 2141; numbered along this chain, Q86UP3 (parent)
chain: RPRTRITDDQLKILRAYFDINNSPSEEQIQEMAEKSGLSQKVIKHWFRNTLFKERQ

The data set covers variants of B1. Briefly: abundance fitness (aPCA) (normalised: wild type 0, dead -1); higher = more abundant; growth selection in yeast, the domain comes from the species named. To be noted: Homo sapiens.
As for RPRTRITDDQDKILRAYFDINNSPSEEQIQEMAEKSGLSQKVIKHWFRNTLFKERQ, the abundance fitness is -0.069 ± 0.13.
Next, RPRTRITDDQAKILRAYFDINNSPSEEQIQEMAEKSGLSQKVIKHWFRNTLFKERQ: -0.193 ± 0.069.
Under RPRTRITDDQNKILRAYFDINNSPSEEQIQEMAEKSGLSQKVIKHWFRNTLFKERQ stands -0.024 ± 0.17; under RPRTRITDDQSKILRAYFDINNSPSEEQIQEMAEKSGLSQKVIKHWFRNTLFKERQ, -0.043 ± 0.073; under RPRTRITDDQRKILRAYFDINNSPSEEQIQEMAEKSGLSQKVIKHWFRNTLFKERQ, -0.026 ± 0.069.
Next, RPRTRITDDQCKILRAYFDINNSPSEEQIQEMAEKSGLSQKVIKHWFRNTLFKERQ: -0.392 ± 0.096; RPRTRITDDQMKILRAYFDINNSPSEEQIQEMAEKSGLSQKVIKHWFRNTLFKERQ: -0.148 ± 0.11.
For RPRTRITDDQHKILRAYFDINNSPSEEQIQEMAEKSGLSQKVIKHWFRNTLFKERQ, the abundance fitness was -0.165 ± 0.11.
Under RPRTRITDDQIKILRAYFDINNSPSEEQIQEMAEKSGLSQKVIKHWFRNTLFKERQ stands -0.14 ± 0.13; under RPRTRITDDQYKILRAYFDINNSPSEEQIQEMAEKSGLSQKVIKHWFRNTLFKERQ, 0.155 ± 0.13.
Next, RPRTRITDDQTKILRAYFDINNSPSEEQIQEMAEKSGLSQKVIKHWFRNTLFKERQ: -0.115 ± 0.087; RPRTRITDDQEKILRAYFDINNSPSEEQIQEMAEKSGLSQKVIKHWFRNTLFKERQ: 0.059 ± 0.097; RPRTRITDDQKKILRAYFDINNSPSEEQIQEMAEKSGLSQKVIKHWFRNTLFKERQ: 0.138 ± 0.11.
Under RPRTRITDDQQKILRAYFDINNSPSEEQIQEMAEKSGLSQKVIKHWFRNTLFKERQ stands -0.147 ± 0.1; under RPRTRITDDQVKILRAYFDINNSPSEEQIQEMAEKSGLSQKVIKHWFRNTLFKERQ, -0.18 ± 0.074.
For the variant RPRTRITDDQGKILRAYFDINNSPSEEQIQEMAEKSGLSQKVIKHWFRNTLFKERQ, the abundance fitness was -0.172 ± 0.065.
Under RPRTRITDDQWKILRAYFDINNSPSEEQIQEMAEKSGLSQKVIKHWFRNTLFKERQ stands -0.205 ± 0.077; under RPRTRITDDQFKILRAYFDINNSPSEEQIQEMAEKSGLSQKVIKHWFRNTLFKERQ, -0.134 ± 0.086; under RPRTRITDDQPKILRAYFDINNSPSEEQIQEMAEKSGLSQKVIKHWFRNTLFKERQ, -0.769 ± 0.11.
Under RPRTRITDDGLKILRAYFDINNSPSEEQIQEMAEKSGLSQKVIKHWFRNTLFKERQ stands -0.514 ± 0.068; under RPRTRITDDRLKILRAYFDINNSPSEEQIQEMAEKSGLSQKVIKHWFRNTLFKERQ, -0.526 ± 0.078; under RPRTRITDDYLKILRAYFDINNSPSEEQIQEMAEKSGLSQKVIKHWFRNTLFKERQ, -0.498 ± 0.13.
Under RPRTRITDDSLKILRAYFDINNSPSEEQIQEMAEKSGLSQKVIKHWFRNTLFKERQ stands -0.172 ± 0.076.
RPRTRITDDILKILRAYFDINNSPSEEQIQEMAEKSGLSQKVIKHWFRNTLFKERQ: the abundance fitness was -0.462 ± 0.12.
Next, RPRTRITDDTLKILRAYFDINNSPSEEQIQEMAEKSGLSQKVIKHWFRNTLFKERQ: -0.245 ± 0.092.
Under RPRTRITDDCLKILRAYFDINNSPSEEQIQEMAEKSGLSQKVIKHWFRNTLFKERQ stands -0.277 ± 0.11; under RPRTRITDDWLKILRAYFDINNSPSEEQIQEMAEKSGLSQKVIKHWFRNTLFKERQ, -0.817 ± 0.1.
For the variant RPRTRITDDELKILRAYFDINNSPSEEQIQEMAEKSGLSQKVIKHWFRNTLFKERQ, the abundance fitness was -0.383 ± 0.092.
Under RPRTRITDDALKILRAYFDINNSPSEEQIQEMAEKSGLSQKVIKHWFRNTLFKERQ stands -0.461 ± 0.076; under RPRTRITDDDLKILRAYFDINNSPSEEQIQEMAEKSGLSQKVIKHWFRNTLFKERQ, -0.125 ± 0.12.
Under RPRTRITDDFLKILRAYFDINNSPSEEQIQEMAEKSGLSQKVIKHWFRNTLFKERQ stands -0.616 ± 0.19.
Under RPRTRITDDPLKILRAYFDINNSPSEEQIQEMAEKSGLSQKVIKHWFRNTLFKERQ stands -0.819 ± 0.13; under RPRTRITDDMLKILRAYFDINNSPSEEQIQEMAEKSGLSQKVIKHWFRNTLFKERQ, -0.323 ± 0.11; under RPRTRITDDNLKILRAYFDINNSPSEEQIQEMAEKSGLSQKVIKHWFRNTLFKERQ, -0.099 ± 0.19.
On to RPRTRITDDQLKIERAYFDINNSPSEEQIQEMAEKSGLSQKVIKHWFRNTLFKERQ, for which the abundance fitness was -1 ± 0.14.
Next, RPRTRITDDQLKIHRAYFDINNSPSEEQIQEMAEKSGLSQKVIKHWFRNTLFKERQ: -1 ± 0.23; RPRTRITDDQLKICRAYFDINNSPSEEQIQEMAEKSGLSQKVIKHWFRNTLFKERQ: -0.671 ± 0.17.
Under RPRTRITDDQLKIVRAYFDINNSPSEEQIQEMAEKSGLSQKVIKHWFRNTLFKERQ stands -0.273 ± 0.083; under RPRTRITDDQLKIARAYFDINNSPSEEQIQEMAEKSGLSQKVIKHWFRNTLFKERQ, -0.865 ± 0.12; under RPRTRITDDQLKIYRAYFDINNSPSEEQIQEMAEKSGLSQKVIKHWFRNTLFKERQ, -1.22 ± 0.33.
Under RPRTRITDDQLKIIRAYFDINNSPSEEQIQEMAEKSGLSQKVIKHWFRNTLFKERQ stands -0.439 ± 0.42; under RPRTRITDDQLKIQRAYFDINNSPSEEQIQEMAEKSGLSQKVIKHWFRNTLFKERQ, -0.866 ± 0.13; under RPRTRITDDQLKIFRAYFDINNSPSEEQIQEMAEKSGLSQKVIKHWFRNTLFKERQ, -0.304 ± 0.28.
Consider RPRTRITDDQLKINRAYFDINNSPSEEQIQEMAEKSGLSQKVIKHWFRNTLFKERQ, for which the abundance fitness is -1.18 ± 0.31.
Under RPRTRITDDQLKISRAYFDINNSPSEEQIQEMAEKSGLSQKVIKHWFRNTLFKERQ stands -1.02 ± 0.14.
Under RPRTRITDDQLKIKRAYFDINNSPSEEQIQEMAEKSGLSQKVIKHWFRNTLFKERQ stands -1.16 ± 0.2; under RPRTRITDDQLKIWRAYFDINNSPSEEQIQEMAEKSGLSQKVIKHWFRNTLFKERQ, -0.777 ± 0.14.
Under RPRTRITDDQLKIRRAYFDINNSPSEEQIQEMAEKSGLSQKVIKHWFRNTLFKERQ stands -0.949 ± 0.096; under RPRTRITDDQLKITRAYFDINNSPSEEQIQEMAEKSGLSQKVIKHWFRNTLFKERQ, -1.01 ± 0.12; under RPRTRITDDQLKIDRAYFDINNSPSEEQIQEMAEKSGLSQKVIKHWFRNTLFKERQ, -1.19 ± 0.46.
As for RPRTRITDDQLQILRAYFDINNSPSEEQIQEMAEKSGLSQKVIKHWFRNTLFKERQ, the abundance fitness was -0.029 ± 0.11.
On to RPRTRITDDQLHILRAYFDINNSPSEEQIQEMAEKSGLSQKVIKHWFRNTLFKERQ, for which the abundance fitness was -0.34 ± 0.13.
Under RPRTRITDDQLEILRAYFDINNSPSEEQIQEMAEKSGLSQKVIKHWFRNTLFKERQ stands -0.076 ± 0.1; under RPRTRITDDQLIILRAYFDINNSPSEEQIQEMAEKSGLSQKVIKHWFRNTLFKERQ, -0.094 ± 0.15; under RPRTRITDDQLNILRAYFDINNSPSEEQIQEMAEKSGLSQKVIKHWFRNTLFKERQ, -0.007 ± 0.11.
Next, RPRTRITDDQLGILRAYFDINNSPSEEQIQEMAEKSGLSQKVIKHWFRNTLFKERQ: -0.146 ± 0.068; RPRTRITDDQLAILRAYFDINNSPSEEQIQEMAEKSGLSQKVIKHWFRNTLFKERQ: -0.137 ± 0.084; RPRTRITDDQLLILRAYFDINNSPSEEQIQEMAEKSGLSQKVIKHWFRNTLFKERQ: 0.005 ± 0.073.
Take RPRTRITDDQLRILRAYFDINNSPSEEQIQEMAEKSGLSQKVIKHWFRNTLFKERQ: the abundance fitness is -0.039 ± 0.065.
Next, RPRTRITDDQLPILRAYFDINNSPSEEQIQEMAEKSGLSQKVIKHWFRNTLFKERQ: -0.16 ± 0.093; RPRTRITDDQLMILRAYFDINNSPSEEQIQEMAEKSGLSQKVIKHWFRNTLFKERQ: -0.071 ± 0.091; RPRTRITDDQLSILRAYFDINNSPSEEQIQEMAEKSGLSQKVIKHWFRNTLFKERQ: -0.09 ± 0.081.
Under RPRTRITDDQLVILRAYFDINNSPSEEQIQEMAEKSGLSQKVIKHWFRNTLFKERQ stands -0.045 ± 0.075; under RPRTRITDDQLDILRAYFDINNSPSEEQIQEMAEKSGLSQKVIKHWFRNTLFKERQ, -0.212 ± 0.12; under RPRTRITDDQLWILRAYFDINNSPSEEQIQEMAEKSGLSQKVIKHWFRNTLFKERQ, -0.379 ± 0.082.
Next, RPRTRITDDQLCILRAYFDINNSPSEEQIQEMAEKSGLSQKVIKHWFRNTLFKERQ: -0.112 ± 0.099.
Take RPRTRITDDQLYILRAYFDINNSPSEEQIQEMAEKSGLSQKVIKHWFRNTLFKERQ: the abundance fitness was -0.422 ± 0.13.
Next, RPRTRITDDQLKDLRAYFDINNSPSEEQIQEMAEKSGLSQKVIKHWFRNTLFKERQ: -0.289 ± 0.15; RPRTRITDDQLKKLRAYFDINNSPSEEQIQEMAEKSGLSQKVIKHWFRNTLFKERQ: -0.062 ± 0.12.
Under RPRTRITDDQLKYLRAYFDINNSPSEEQIQEMAEKSGLSQKVIKHWFRNTLFKERQ stands -0.027 ± 0.21.
Next, RPRTRITDDQLKLLRAYFDINNSPSEEQIQEMAEKSGLSQKVIKHWFRNTLFKERQ: -0.08 ± 0.072; RPRTRITDDQLKELRAYFDINNSPSEEQIQEMAEKSGLSQKVIKHWFRNTLFKERQ: -0.17 ± 0.12.
On to RPRTRITDDQLKSLRAYFDINNSPSEEQIQEMAEKSGLSQKVIKHWFRNTLFKERQ, for which the abundance fitness is -0.218 ± 0.088.
Next, RPRTRITDDQLKVLRAYFDINNSPSEEQIQEMAEKSGLSQKVIKHWFRNTLFKERQ: -0.027 ± 0.076; RPRTRITDDQLKMLRAYFDINNSPSEEQIQEMAEKSGLSQKVIKHWFRNTLFKERQ: -0.057 ± 0.084.
Next, RPRTRITDDQLKGLRAYFDINNSPSEEQIQEMAEKSGLSQKVIKHWFRNTLFKERQ: -0.347 ± 0.076.
Next, RPRTRITDDQLKFLRAYFDINNSPSEEQIQEMAEKSGLSQKVIKHWFRNTLFKERQ: -0.13 ± 0.19; RPRTRITDDQLKWLRAYFDINNSPSEEQIQEMAEKSGLSQKVIKHWFRNTLFKERQ: -0.136 ± 0.082.
For RPRTRITDDQLKHLRAYFDINNSPSEEQIQEMAEKSGLSQKVIKHWFRNTLFKERQ, the abundance fitness was -0.333 ± 0.14.
In the case of RPRTRITDDQLKALRAYFDINNSPSEEQIQEMAEKSGLSQKVIKHWFRNTLFKERQ, the abundance fitness was -0.372 ± 0.084.
Under RPRTRITDDQLKQLRAYFDINNSPSEEQIQEMAEKSGLSQKVIKHWFRNTLFKERQ stands 0.026 ± 0.11; under RPRTRITDDQLKTLRAYFDINNSPSEEQIQEMAEKSGLSQKVIKHWFRNTLFKERQ, 0.043 ± 0.11.
Under RPRTRITDDQLKPLRAYFDINNSPSEEQIQEMAEKSGLSQKVIKHWFRNTLFKERQ stands -0.612 ± 0.14.
Under RPRTRITDDQLKRLRAYFDINNSPSEEQIQEMAEKSGLSQKVIKHWFRNTLFKERQ stands -0.223 ± 0.074; under RPRTRITDDQLKILKAYFDINNSPSEEQIQEMAEKSGLSQKVIKHWFRNTLFKERQ, 0.018 ± 0.093; under RPRTRITDDQLKILCAYFDINNSPSEEQIQEMAEKSGLSQKVIKHWFRNTLFKERQ, -0.414 ± 0.13.
Regarding RPRTRITDDQLKILAAYFDINNSPSEEQIQEMAEKSGLSQKVIKHWFRNTLFKERQ, the abundance fitness is -0.215 ± 0.076.
Next, RPRTRITDDQLKILLAYFDINNSPSEEQIQEMAEKSGLSQKVIKHWFRNTLFKERQ: -0.081 ± 0.072.
Under RPRTRITDDQLKILFAYFDINNSPSEEQIQEMAEKSGLSQKVIKHWFRNTLFKERQ stands -0.245 ± 0.16; under RPRTRITDDQLKILHAYFDINNSPSEEQIQEMAEKSGLSQKVIKHWFRNTLFKERQ, -0.337 ± 0.15; under RPRTRITDDQLKILGAYFDINNSPSEEQIQEMAEKSGLSQKVIKHWFRNTLFKERQ, -0.093 ± 0.07.
With RPRTRITDDQLKILDAYFDINNSPSEEQIQEMAEKSGLSQKVIKHWFRNTLFKERQ, the abundance fitness was -0.168 ± 0.11.
In the case of RPRTRITDDQLKILEAYFDINNSPSEEQIQEMAEKSGLSQKVIKHWFRNTLFKERQ, the abundance fitness was -0.098 ± 0.089.
Under RPRTRITDDQLKILIAYFDINNSPSEEQIQEMAEKSGLSQKVIKHWFRNTLFKERQ stands -0.296 ± 0.16.

(Values after the Human Domainome abundance scans (Beltran et al. 2025).)
